# Key:
# [1] = system: AncSZ; assay: phosphorylation enrichment, bacterial display (enrichment ratio); higher = better substrate or ligand; peptides without Tyr show the background
# [2] = molecular target: EPHB1 (UniProt P54762); assay: as above
# [3] = molecular target: EPHB2 (UniProt P29323); assay: as above
# [4] = molecular target: FGFR1 (UniProt P11362); assay: as above
# [5] = molecular target: FGFR3 (UniProt P22607); assay: as above
# [6] = system: Fer (mouse); assay: as above
# [7] = molecular target: Fes (UniProt P07332); assay: as above
# [8] = molecular target: Fyn (UniProt P06241); assay: as above
# [9] = molecular target: Hck (UniProt P08631); assay: as above
# [10] = molecular target: Jak2 (UniProt O60674); assay: as above
# [11] = molecular target: MERTK (UniProt Q12866); assay: as above
# [12] = system: c-Abl (mouse); assay: as above
# [13] = system: c-Src; assay: as above
# [14] = molecular target: Grb2 SH2 (UniProt P62993); assay: SH2 binding enrichment of the phosphorylated peptide, bacterial display (enrichment ratio); higher = better substrate or ligand; peptides without Tyr show the background
# [15] = molecular target: SHP2-C SH2; assay: as above
# [16] = molecular target: c-Src SH2; assay: as above
# 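For SH2 binding enrichment of the phosphorylated peptide, bacterial display in this document: peptide library displayed on the E. coli surface as eCPX fusions, selected cells deep-sequenced, score is each peptide's frequency after selection divided by its frequency in the input.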
# 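For phosphorylation enrichment, bacterial display in this document: 11-residue human phosphosite peptides and single-mutation variants displayed on the E. coli surface, counted by deep sequencing, each peptide's frequency after selection divided by its frequency in the unselected input library; frequency after pTyr selection over input frequency; kinase dosed for 20-30% of maximal phosphorylation in three min.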
# Chain of FGFR1 (P11362 whole entry, looked up): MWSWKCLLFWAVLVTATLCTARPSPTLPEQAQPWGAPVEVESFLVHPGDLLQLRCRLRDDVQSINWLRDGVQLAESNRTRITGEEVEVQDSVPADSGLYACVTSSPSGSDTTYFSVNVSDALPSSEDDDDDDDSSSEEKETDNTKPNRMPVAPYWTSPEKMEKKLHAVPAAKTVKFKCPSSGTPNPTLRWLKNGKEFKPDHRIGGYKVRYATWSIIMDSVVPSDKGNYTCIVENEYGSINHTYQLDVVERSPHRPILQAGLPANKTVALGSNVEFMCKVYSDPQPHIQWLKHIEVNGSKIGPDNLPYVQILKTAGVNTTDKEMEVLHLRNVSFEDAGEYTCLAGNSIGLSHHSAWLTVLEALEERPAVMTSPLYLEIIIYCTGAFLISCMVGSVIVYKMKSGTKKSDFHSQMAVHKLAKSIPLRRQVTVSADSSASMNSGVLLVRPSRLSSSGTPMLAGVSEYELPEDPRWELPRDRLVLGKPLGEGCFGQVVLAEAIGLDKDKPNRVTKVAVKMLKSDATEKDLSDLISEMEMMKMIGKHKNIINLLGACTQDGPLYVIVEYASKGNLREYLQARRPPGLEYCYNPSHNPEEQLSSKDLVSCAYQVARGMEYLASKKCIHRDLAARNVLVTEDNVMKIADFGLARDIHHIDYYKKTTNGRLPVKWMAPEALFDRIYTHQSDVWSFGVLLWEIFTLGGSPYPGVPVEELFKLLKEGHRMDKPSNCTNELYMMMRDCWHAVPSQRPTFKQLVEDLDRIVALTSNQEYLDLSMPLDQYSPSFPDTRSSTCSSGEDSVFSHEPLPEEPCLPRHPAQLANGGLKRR
# Chain of MERTK (Q12866 whole entry, looked up): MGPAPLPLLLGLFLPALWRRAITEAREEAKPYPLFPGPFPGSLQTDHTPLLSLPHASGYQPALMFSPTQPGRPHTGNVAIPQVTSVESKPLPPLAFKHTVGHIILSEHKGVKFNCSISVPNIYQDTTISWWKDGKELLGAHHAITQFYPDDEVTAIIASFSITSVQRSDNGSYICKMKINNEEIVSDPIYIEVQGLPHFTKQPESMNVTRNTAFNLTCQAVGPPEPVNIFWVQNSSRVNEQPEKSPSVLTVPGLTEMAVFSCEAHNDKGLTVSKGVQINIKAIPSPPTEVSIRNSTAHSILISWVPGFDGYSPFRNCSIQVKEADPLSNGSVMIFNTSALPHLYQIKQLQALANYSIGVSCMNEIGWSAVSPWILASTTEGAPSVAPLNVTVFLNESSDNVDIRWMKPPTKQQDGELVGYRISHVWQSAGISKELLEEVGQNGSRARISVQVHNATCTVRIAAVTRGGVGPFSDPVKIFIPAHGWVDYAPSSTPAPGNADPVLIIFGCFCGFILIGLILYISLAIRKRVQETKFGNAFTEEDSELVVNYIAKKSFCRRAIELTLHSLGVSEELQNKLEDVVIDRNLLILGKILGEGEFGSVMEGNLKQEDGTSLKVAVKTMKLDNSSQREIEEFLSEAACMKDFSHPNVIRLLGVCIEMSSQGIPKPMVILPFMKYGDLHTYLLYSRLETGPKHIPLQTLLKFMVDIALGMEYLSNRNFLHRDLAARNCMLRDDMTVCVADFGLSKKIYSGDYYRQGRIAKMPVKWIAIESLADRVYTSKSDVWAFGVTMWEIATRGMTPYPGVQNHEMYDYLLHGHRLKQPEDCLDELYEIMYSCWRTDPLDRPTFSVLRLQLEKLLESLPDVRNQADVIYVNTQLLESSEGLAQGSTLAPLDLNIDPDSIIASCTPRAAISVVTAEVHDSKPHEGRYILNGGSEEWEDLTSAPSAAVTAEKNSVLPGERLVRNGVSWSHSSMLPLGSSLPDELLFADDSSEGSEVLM
# Chain of EPHB2 (P29323 whole entry, looked up): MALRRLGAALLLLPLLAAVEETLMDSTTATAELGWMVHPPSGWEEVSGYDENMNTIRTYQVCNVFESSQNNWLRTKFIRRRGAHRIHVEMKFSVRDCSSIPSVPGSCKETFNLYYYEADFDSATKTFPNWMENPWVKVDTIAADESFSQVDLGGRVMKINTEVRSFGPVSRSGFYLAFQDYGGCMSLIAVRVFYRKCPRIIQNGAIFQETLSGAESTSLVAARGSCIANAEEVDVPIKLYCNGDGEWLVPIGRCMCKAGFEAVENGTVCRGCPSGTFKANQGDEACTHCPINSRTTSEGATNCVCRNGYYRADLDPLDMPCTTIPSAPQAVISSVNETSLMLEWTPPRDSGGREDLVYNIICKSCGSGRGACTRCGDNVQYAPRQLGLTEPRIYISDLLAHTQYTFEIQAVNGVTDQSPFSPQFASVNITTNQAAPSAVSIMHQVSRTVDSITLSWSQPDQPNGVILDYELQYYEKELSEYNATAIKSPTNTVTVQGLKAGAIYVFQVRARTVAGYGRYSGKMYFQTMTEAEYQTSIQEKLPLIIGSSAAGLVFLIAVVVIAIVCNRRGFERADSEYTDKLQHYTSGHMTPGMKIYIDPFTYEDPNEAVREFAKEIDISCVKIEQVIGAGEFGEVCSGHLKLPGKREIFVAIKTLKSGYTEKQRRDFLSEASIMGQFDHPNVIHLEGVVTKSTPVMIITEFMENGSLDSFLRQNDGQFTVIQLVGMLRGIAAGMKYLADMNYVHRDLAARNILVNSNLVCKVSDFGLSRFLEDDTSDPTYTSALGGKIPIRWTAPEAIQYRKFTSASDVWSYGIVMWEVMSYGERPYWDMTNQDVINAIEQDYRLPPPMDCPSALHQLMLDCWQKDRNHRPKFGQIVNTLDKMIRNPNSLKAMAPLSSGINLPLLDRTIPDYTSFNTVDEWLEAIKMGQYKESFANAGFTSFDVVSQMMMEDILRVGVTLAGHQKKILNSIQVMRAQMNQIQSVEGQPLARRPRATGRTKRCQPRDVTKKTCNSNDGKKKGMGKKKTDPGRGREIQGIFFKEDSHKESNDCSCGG
# Chain of Fyn (P06241 whole entry, looked up): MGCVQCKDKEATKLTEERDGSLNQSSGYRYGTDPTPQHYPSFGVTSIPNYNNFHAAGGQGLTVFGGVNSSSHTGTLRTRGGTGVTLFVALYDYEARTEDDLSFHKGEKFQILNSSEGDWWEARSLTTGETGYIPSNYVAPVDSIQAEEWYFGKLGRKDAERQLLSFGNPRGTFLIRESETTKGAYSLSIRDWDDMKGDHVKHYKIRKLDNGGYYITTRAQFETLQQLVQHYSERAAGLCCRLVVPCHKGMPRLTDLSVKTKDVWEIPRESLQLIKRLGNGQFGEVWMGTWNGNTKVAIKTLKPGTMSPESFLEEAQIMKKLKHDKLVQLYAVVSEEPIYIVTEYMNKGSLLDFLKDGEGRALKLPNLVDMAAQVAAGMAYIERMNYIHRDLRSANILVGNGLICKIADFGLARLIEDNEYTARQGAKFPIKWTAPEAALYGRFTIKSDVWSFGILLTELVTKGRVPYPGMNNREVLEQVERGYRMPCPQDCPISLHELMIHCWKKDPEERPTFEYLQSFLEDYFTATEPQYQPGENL
# Chain of Jak2 (O60674 whole entry, looked up): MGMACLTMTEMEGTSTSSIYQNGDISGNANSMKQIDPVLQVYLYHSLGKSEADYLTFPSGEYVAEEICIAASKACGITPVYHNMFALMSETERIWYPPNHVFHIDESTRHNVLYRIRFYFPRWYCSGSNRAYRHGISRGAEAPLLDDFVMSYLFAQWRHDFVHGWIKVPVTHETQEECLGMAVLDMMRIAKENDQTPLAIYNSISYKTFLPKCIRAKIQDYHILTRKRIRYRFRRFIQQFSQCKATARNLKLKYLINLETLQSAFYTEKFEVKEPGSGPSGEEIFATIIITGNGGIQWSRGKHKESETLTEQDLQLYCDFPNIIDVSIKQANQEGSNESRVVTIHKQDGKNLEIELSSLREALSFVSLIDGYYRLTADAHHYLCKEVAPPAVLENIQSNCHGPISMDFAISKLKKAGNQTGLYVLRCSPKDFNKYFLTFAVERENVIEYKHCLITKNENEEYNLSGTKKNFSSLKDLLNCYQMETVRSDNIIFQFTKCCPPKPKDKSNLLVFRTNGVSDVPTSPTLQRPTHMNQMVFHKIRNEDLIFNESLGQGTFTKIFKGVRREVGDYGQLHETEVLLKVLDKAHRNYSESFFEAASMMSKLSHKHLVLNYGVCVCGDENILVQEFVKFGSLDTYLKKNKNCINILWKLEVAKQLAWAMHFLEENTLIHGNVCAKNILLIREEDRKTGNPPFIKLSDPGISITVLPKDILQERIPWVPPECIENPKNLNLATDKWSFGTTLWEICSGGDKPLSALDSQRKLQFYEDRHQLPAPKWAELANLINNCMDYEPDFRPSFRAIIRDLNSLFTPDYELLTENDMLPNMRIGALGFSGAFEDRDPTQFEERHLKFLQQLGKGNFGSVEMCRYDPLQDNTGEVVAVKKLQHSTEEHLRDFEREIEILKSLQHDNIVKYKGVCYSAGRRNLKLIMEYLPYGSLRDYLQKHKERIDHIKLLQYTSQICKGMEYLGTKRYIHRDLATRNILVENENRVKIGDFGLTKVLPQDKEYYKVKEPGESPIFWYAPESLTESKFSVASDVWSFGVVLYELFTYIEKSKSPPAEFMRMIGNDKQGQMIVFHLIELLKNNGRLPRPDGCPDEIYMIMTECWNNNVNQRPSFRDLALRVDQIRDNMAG
# Chain of Hck (P08631 whole entry, looked up): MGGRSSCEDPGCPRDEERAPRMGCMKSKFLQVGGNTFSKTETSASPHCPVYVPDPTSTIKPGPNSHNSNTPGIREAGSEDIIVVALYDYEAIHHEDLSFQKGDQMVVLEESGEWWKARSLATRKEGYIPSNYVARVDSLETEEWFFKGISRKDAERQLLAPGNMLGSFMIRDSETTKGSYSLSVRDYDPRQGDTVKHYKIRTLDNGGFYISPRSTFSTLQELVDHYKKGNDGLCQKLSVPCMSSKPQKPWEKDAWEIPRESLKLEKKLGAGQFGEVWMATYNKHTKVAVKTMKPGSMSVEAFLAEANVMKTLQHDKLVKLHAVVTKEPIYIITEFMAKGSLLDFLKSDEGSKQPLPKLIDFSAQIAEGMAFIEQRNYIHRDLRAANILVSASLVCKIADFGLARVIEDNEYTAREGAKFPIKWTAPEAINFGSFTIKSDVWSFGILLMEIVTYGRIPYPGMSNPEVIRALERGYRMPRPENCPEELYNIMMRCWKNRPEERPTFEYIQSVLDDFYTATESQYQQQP
Sequence,SH2 binding enrichment [14],SH2 binding enrichment [15],SH2 binding enrichment [16],phosphorylation enrichment [1],phosphorylation enrichment [2],phosphorylation enrichment [3],phosphorylation enrichment [4],phosphorylation enrichment [5],phosphorylation enrichment [6],phosphorylation enrichment [7],phosphorylation enrichment [8],phosphorylation enrichment [9],phosphorylation enrichment [10],phosphorylation enrichment [11],phosphorylation enrichment [12],phosphorylation enrichment [13]
ISMAGYSIPEL [EDAR_Y406_T403M],0.827,0.861,10.4,0.647,0.395,0.553,0.494,0.54,0.455,0.787,0.448,0.437,0.68,0.573,1.15,0.508
HTVVSYAKVRA [CLOCK_Y378_E380K],1.11,14.5,1.12,1.2,0.749,0.972,0.917,0.933,0.673,1.3,1.23,0.85,1.04,0.934,0.65,0.489
EVGRVYLFLQP [ITGA2B_Y360],0.726,0.737,0.417,1.18,0.838,0.676,0.401,0.676,0.627,1.51,0.379,0.445,1.3,0.34,0.884,0.409
ALAAPYVLYPG [CEFIP_Y1332],0.747,0.602,0.7,0.769,0.565,0.488,3.98,2.55,0.54,0.799,0.694,0.794,0.845,0.597,0.569,4.26
KPEKTYGLRNE [CEP43_Y267_K271N],0.594,0.758,0.534,0.494,0.39,0.362,0.394,0.371,0.321,0.569,0.37,0.406,0.512,0.397,0.551,0.439
EVTQDYGLDPK [FH_Y110_N107T],0.672,0.648,0.461,1.32,0.606,0.637,0.558,0.902,0.625,1.36,0.513,0.574,1.06,0.528,0.842,0.504
MDQAEYQAKIR [DHX58_Y518],0.754,1.04,0.612,0.616,0.299,0.476,0.441,0.412,0.433,0.708,0.477,0.424,0.659,0.446,0.729,0.43
RSRSPYSPVLR [CDK13_Y399],1.2,1.47,0.66,0.917,0.476,0.477,1.06,0.584,0.423,0.854,0.551,0.628,0.563,0.674,0.763,0.701
WRVISYHVVVW [ATP13A2_Y50_G49S],1.08,0.994,0.619,1.2,0.582,0.61,0.554,0.826,0.547,1.47,0.453,0.544,1.26,0.434,1.03,0.63
SRDTCYLVLAV [AMH_Y195_R194C],0.752,0.616,0.453,1.52,0.719,0.684,0.786,1.12,0.62,1.48,0.555,0.651,1.4,0.552,1.06,0.666
PFTRNYFVRAV [CYBA_Y87_YF],0.868,0.327,0.519,1.04,0.413,0.708,0.788,0.739,0.408,0.967,0.533,0.595,0.93,0.544,0.868,0.419
EYKKKYSDADI [CKAP5_Y1860],0.819,0.614,0.435,0.709,0.393,0.474,0.404,0.475,0.399,0.819,0.442,0.367,0.671,0.383,0.637,0.371
RIDPDYVGRVR [IGSF9_Y81],0.758,0.755,0.583,0.871,0.534,0.402,0.496,0.482,0.384,0.702,0.481,0.403,0.778,0.405,0.65,0.563
FIGCIYLFLTK [GARS1_Y414_R412C_YF],1.86,1.71,1.33,0.803,0.251,0.49,0.458,0.573,0.456,0.772,0.399,0.485,0.792,0.415,0.748,0.314

# Further lines, with some results ahead:
SH2 binding enrichment [14],SH2 binding enrichment [15],SH2 binding enrichment [16],Sequence,phosphorylation enrichment [1],phosphorylation enrichment [2],phosphorylation enrichment [3],phosphorylation enrichment [4],phosphorylation enrichment [5],phosphorylation enrichment [6],phosphorylation enrichment [7],phosphorylation enrichment [8],phosphorylation enrichment [9],phosphorylation enrichment [10],phosphorylation enrichment [11],phosphorylation enrichment [12],phosphorylation enrichment [13]
0.892,0.659,0.769,SMVVPYEPPEV [TP53_Y220_V216M],1.11,0.592,0.625,0.45,0.81,0.617,1.33,0.462,0.407,1.3,0.465,0.852,0.526
0.699,0.555,0.506,VYAANYYKLLG [ROR2_Y645_D644N],0.779,3.1,2.04,7.46,5.33,0.469,1.11,1.28,1.76,3.19,5.56,1.23,1.18
1.15,0.893,13.6,YRGYSYDDIPD [TMEM230_Y112],0.973,0.483,0.485,0.531,0.662,0.439,0.964,0.442,0.51,0.973,0.393,0.762,0.463
0.901,0.798,0.752,NHFKIYNPCAE [PTEN_Y68_L70P_YF],0.816,0.494,0.518,0.458,0.676,0.442,0.996,0.564,0.56,0.807,0.452,0.809,0.474
1.87,1.82,1.65,CTTIRYNFMCN [TP53_Y234_H233R_YF],0.948,0.552,0.613,0.434,0.684,0.501,0.983,0.521,0.435,0.833,0.407,0.618,0.372
1.02,0.813,0.738,QGCSIYKDYYR [PLA2G2D_Y82],1.29,1.68,0.734,1.27,1.57,0.724,1.47,3.56,2.92,1.08,0.67,0.731,4.85
0.866,0.645,0.462,GIFEDYVEGLR [MYL6_Y89_T85I_YF],1.25,0.787,0.7,0.567,0.793,0.607,1.17,0.7,0.484,1.22,0.393,0.857,0.536
1.64,1.47,1.24,GMTLSYLFREL [NDUFS8_Y74_P79L],0.888,0.514,0.55,0.53,0.604,0.431,0.905,0.451,0.487,0.758,0.447,0.603,0.383
0.829,7.82,1.03,GENTVYAQVFN [LY9_Y603_M602V],0.819,1.53,1.23,0.599,0.616,7,0.918,6.74,6.46,0.718,2.21,2.92,5.05
0.706,0.523,0.466,AVHPGYGFLSE [PCCA_Y143],0.663,0.46,0.672,0.662,1.12,0.545,0.99,0.487,0.666,0.82,0.527,0.692,0.47
0.818,0.669,0.476,EPNSRYTFKLE [USH2A_Y3745_YF],0.808,0.479,0.448,0.379,0.596,0.397,0.963,0.408,0.393,0.76,0.373,0.658,0.365
0.779,0.591,0.409,GGFTCYCDGKK [PROS1_Y266_YF],1.12,0.608,0.515,0.457,0.865,0.511,1.19,0.485,0.484,0.998,0.419,0.758,0.354
0.891,0.858,0.638,FGVTLYPNSRE [MEP1A_Y472],1.02,0.675,0.68,0.556,0.766,0.398,1.17,0.432,0.599,0.92,0.714,0.995,0.541
0.688,0.56,0.455,LHQSTYQCFDV [SLC7A14_Y693_R695C_YF],1.25,2.34,0.896,1.14,1.11,2.23,1.25,3.33,1.42,1.14,2.26,1.05,5.09
0.686,0.654,0.395,SVTCTYSAALN [TP53_Y126_P128A],1.31,0.876,0.803,0.552,0.929,0.552,1.72,0.657,0.679,1.41,0.62,0.947,0.836
0.838,0.704,0.639,TGQEEYSAMRD [KRAS_Y64_A59T],1.08,0.789,0.536,0.538,0.63,0.462,1,0.519,0.563,0.821,0.475,0.642,0.525
0.902,0.733,0.58,LEFGDYHPLKP [VPS35L_Y32],2.75,1.3,1.26,11.5,7.68,0.846,1.05,0.696,4.28,6.7,1.66,1.19,0.821
0.627,0.52,0.564,SGSFRYGSSFE [SELE_Y390_C394F],0.692,0.463,0.438,0.419,0.528,0.484,0.686,0.526,0.389,0.629,0.426,0.489,0.425
1.45,1.56,1.37,IITVHYVLEES [RYR2_Y4559_A4556T],1.17,0.777,0.577,0.594,0.831,0.579,1.22,0.53,0.517,1.02,0.498,0.794,0.523
